Assays:
Assay in all cases: PEPSCAN ELISA, looped peptide, antibody 10 µg/ml
[1] = molecular target: looped/cyclic peptide … (rabies virus strain ERA)
[2] = molecular target: looped/cyclic peptide … (rabies virus strain ERA); remark: listed apart in the source
[3] = molecular target: looped/cyclic peptide … (rabies virus strain ERA); remark: listed apart in the source
[4] = molecular target: looped/cyclic peptide … (rabies virus strain ERA); remark: listed apart in the source
[5] = molecular target: looped/cyclic peptide … (rabies virus strain ERA); remark: listed apart in the source
[6] = molecular target: looped/cyclic peptide … (rabies virus strain ERA); remark: listed apart in the source
[7] = molecular target: looped/cyclic peptide … (rabies virus strain ERA); remark: listed apart in the source
[8] = molecular target: looped/cyclic peptide … (rabies virus strain ERA); remark: listed apart in the source
[9] = molecular target: looped/cyclic peptide … (rabies virus strain ERA); remark: listed apart in the source
[10] = molecular target: looped/cyclic peptide … (rabies virus strain ERA); remark: listed apart in the source
[11] = molecular target: looped/cyclic peptide … (rabies virus strain ERA); remark: listed apart in the source
[12] = molecular target: looped/cyclic peptide … (rabies virus strain ERA); remark: listed apart in the source
[13] = molecular target: looped/cyclic peptide … (rabies virus strain ERA); remark: listed apart in the source
[14] = molecular target: looped/cyclic peptide … (rabies virus strain ERA); remark: listed apart in the source
[15] = molecular target: looped/cyclic peptide … (rabies virus strain ERA); remark: listed apart in the source
[16] = molecular target: looped/cyclic peptide … (rabies virus strain ERA); remark: listed apart in the source
[17] = molecular target: looped/cyclic peptide … (rabies virus strain ERA); remark: listed apart in the source
[18] = molecular target: looped/cyclic peptide … (rabies virus strain ERA); remark: listed apart in the source
[19] = molecular target: looped/cyclic peptide … (rabies virus strain ERA); remark: listed apart in the source
[20] = molecular target: looped/cyclic peptide … (rabies virus strain ERA); remark: listed apart in the source
[21] = molecular target: looped/cyclic peptide … (rabies virus strain ERA); remark: listed apart in the source
[22] = molecular target: looped/cyclic peptide … (rabies virus strain ERA); remark: listed apart in the source
[23] = molecular target: looped/cyclic peptide … (rabies virus strain ERA); remark: listed apart in the source
[24] = molecular target: looped/cyclic peptide … (rabies virus strain ERA); remark: listed apart in the source
[25] = molecular target: looped/cyclic peptide … (rabies virus strain ERA); remark: listed apart in the source
[26] = molecular target: looped/cyclic peptide … (rabies virus strain ERA); remark: listed apart in the source
[27] = molecular target: looped/cyclic peptide … (rabies virus strain ERA); remark: listed apart in the source
[28] = molecular target: looped/cyclic peptide … (rabies virus strain ERA); remark: listed apart in the source
[29] = molecular target: looped/cyclic peptide … (rabies virus strain ERA); remark: listed apart in the source
[30] = molecular target: looped/cyclic peptide … (rabies virus strain ERA); remark: listed apart in the source
[31] = molecular target: looped/cyclic peptide … (rabies virus strain ERA); remark: listed apart in the source
[32] = molecular target: looped/cyclic peptide … (rabies virus strain ERA); remark: listed apart in the source
[33] = molecular target: looped/cyclic peptide … (rabies virus strain ERA); remark: listed apart in the source
[34] = molecular target: looped/cyclic peptide … (rabies virus strain ERA); remark: listed apart in the source
[35] = molecular target: looped/cyclic peptide … (rabies virus strain ERA); remark: listed apart in the source
[36] = molecular target: looped/cyclic peptide … (rabies virus strain ERA); remark: listed apart in the source
[37] = molecular target: looped/cyclic peptide … (rabies virus strain ERA); remark: listed apart in the source
[38] = molecular target: looped/cyclic peptide … (rabies virus strain ERA); remark: listed apart in the source
[39] = molecular target: looped/cyclic peptide … (rabies virus strain ERA); remark: listed apart in the source
[40] = molecular target: looped/cyclic peptide … (rabies virus strain ERA); remark: listed apart in the source
[41] = molecular target: looped/cyclic peptide … (rabies virus strain ERA); remark: listed apart in the source
[42] = molecular target: looped/cyclic peptide … (rabies virus strain ERA); remark: listed apart in the source
[43] = molecular target: looped/cyclic peptide … (rabies virus strain ERA); remark: listed apart in the source
[44] = molecular target: looped/cyclic peptide … (rabies virus strain ERA); remark: listed apart in the source
[45] = molecular target: looped/cyclic peptide … (rabies virus strain ERA); remark: listed apart in the source
[46] = molecular target: looped/cyclic peptide … (rabies virus strain ERA); remark: listed apart in the source
[47] = molecular target: looped/cyclic peptide … (rabies virus strain ERA); remark: listed apart in the source
[48] = molecular target: looped/cyclic peptide … (rabies virus strain ERA); remark: listed apart in the source
[49] = molecular target: looped/cyclic peptide … (rabies virus strain ERA); remark: listed apart in the source
[50] = molecular target: looped/cyclic peptide … (rabies virus strain ERA); remark: listed apart in the source
[51] = molecular target: looped/cyclic peptide … (rabies virus strain ERA); remark: listed apart in the source
[52] = molecular target: looped/cyclic peptide … (rabies virus strain ERA); remark: listed apart in the source
[53] = molecular target: looped/cyclic peptide … (rabies virus strain ERA); remark: listed apart in the source
[54] = molecular target: looped/cyclic peptide … (rabies virus strain ERA); remark: listed apart in the source
[55] = molecular target: looped/cyclic peptide … (rabies virus strain ERA); remark: listed apart in the source
[56] = molecular target: looped/cyclic peptide … (rabies virus strain ERA); remark: listed apart in the source
[57] = molecular target: looped/cyclic peptide […] (rabies virus strain ERA)
[58] = molecular target: looped/cyclic peptide … (rabies virus strain ERA); remark: listed apart in the source
[59] = molecular target: looped/cyclic peptide … (rabies virus strain ERA); remark: listed apart in the source
[60] = molecular target: looped/cyclic peptide … (rabies virus strain ERA); remark: listed apart in the source
[61] = molecular target: looped/cyclic peptide … (rabies virus strain ERA); remark: listed apart in the source
[62] = molecular target: looped/cyclic peptide … (rabies virus strain ERA); remark: listed apart in the source
[63] = molecular target: looped/cyclic peptide … (rabies virus strain ERA); remark: listed apart in the source
[64] = molecular target: looped/cyclic peptide … (rabies virus strain ERA); remark: listed apart in the source
[65] = molecular target: looped/cyclic peptide … (rabies virus strain ERA); remark: listed apart in the source
[66] = molecular target: looped/cyclic peptide … (rabies virus strain ERA); remark: listed apart in the source
[67] = molecular target: looped/cyclic peptide … (rabies virus strain ERA); remark: listed apart in the source
[68] = molecular target: looped/cyclic peptide … (rabies virus strain ERA); remark: listed apart in the source
[69] = molecular target: looped/cyclic peptide … (rabies virus strain ERA); remark: listed apart in the source
[70] = molecular target: looped/cyclic peptide … (rabies virus strain ERA); remark: listed apart in the source
[71] = molecular target: looped/cyclic peptide … (rabies virus strain ERA); remark: listed apart in the source
[72] = molecular target: looped/cyclic peptide … (rabies virus strain ERA); remark: listed apart in the source
[73] = molecular target: looped/cyclic peptide … (rabies virus strain ERA); remark: listed apart in the source
[74] = molecular target: looped/cyclic peptide … (rabies virus strain ERA); remark: listed apart in the source
[75] = molecular target: looped/cyclic peptide … (rabies virus strain ERA); remark: listed apart in the source

B1: human monoclonal antibody CRJB (antibody, V domains shown)
VH: QITLKETGPTLVKPTQTLTLTCTFSGFSLSTSGVGVGWIRQPPGKALEWVTLIYWDDDKRYSPSLENRVTIRKDTSKNQVALTMTNMDPLDTGTYYCAHRQHISSFPWFDSWGQGTLVTVSS
VL: SYVLTQPPSVSVAPGKTARINCGGNNIEYRSVHWYQQKSGQAPVAVIYDNSDRPSGIPERFSGSKSGNTATLTISRVEAGDEADYYCQVWDISSDVVFGGGTKLTVLG
Q: How did the OD value [1] turn out when B1 was run?
A: 111 OD

Q: And the OD value [2]?
A: 91 OD

Q: And the OD value [3]?
A: 72 OD

Q: What about the OD value [4] of the same binder?
A: 75 OD

Q: And the OD value [5]?
A: 76 OD

Q: And the OD value [6]?
A: 99 OD

Q: And the OD value [7]?
A: 75 OD

Q: What about the OD value [8] of the same binder?
A: 104 OD

Q: What about the OD value [9] of the same binder?
A: 72 OD

Q: What about the OD value [10] of the same binder?
A: 78 OD

Q: What about the OD value [11] of the same binder?
A: 100 OD

Q: What about the OD value [12] of the same binder?
A: 101 OD

Q: What about the OD value [13] of the same binder?
A: 77 OD

Q: And the OD value [14]?
A: 73 OD

Q: And the OD value [15]?
A: 93 OD

Q: And the OD value [16]?
A: 112 OD

Q: What about the OD value [17] of the same binder?
A: 85 OD

Q: And the OD value [18]?
A: 78 OD

Q: And the OD value [19]?
A: 71 OD

Q: What about the OD value [20] of the same binder?
A: 62 OD

Q: And the OD value [21]?
A: 72 OD

Q: What about the OD value [22] of the same binder?
A: 71 OD

Q: And the OD value [23]?
A: 118 OD

Q: And the OD value [24]?
A: 79 OD

Q: And the OD value [25]?
A: 61 OD

Q: And the OD value [26]?
A: 71 OD

Q: And the OD value [27]?
A: 90 OD

Q: And the OD value [28]?
A: 70 OD

Q: What about the OD value [29] of the same binder?
A: 75 OD

Q: What about the OD value [30] of the same binder?
A: 72 OD

Q: And the OD value [31]?
A: 111 OD

Q: And the OD value [32]?
A: 45 OD

Q: And the OD value [33]?
A: 93 OD

Q: And the OD value [34]?
A: 74 OD

Q: And the OD value [35]?
A: 68 OD

Q: And the OD value [36]?
A: 73 OD

Q: What about the OD value [37] of the same binder?
A: 49 OD

Q: What about the OD value [38] of the same binder?
A: 72 OD

Q: What about the OD value [39] of the same binder?
A: 59 OD

Q: What about the OD value [40] of the same binder?
A: 60 OD

Q: What about the OD value [41] of the same binder?
A: 64 OD

Q: And the OD value [42]?
A: 90 OD

Q: What about the OD value [43] of the same binder?
A: 93 OD

Q: What about the OD value [44] of the same binder?
A: 64 OD

Q: And the OD value [45]?
A: 92 OD

Q: And the OD value [46]?
A: 92 OD

Q: What about the OD value [47] of the same binder?
A: 90 OD

Q: And the OD value [48]?
A: 77 OD

Q: What about the OD value [49] of the same binder?
A: 46 OD

Q: And the OD value [50]?
A: 60 OD

Q: What about the OD value [51] of the same binder?
A: 82 OD

Q: What about the OD value [52] of the same binder?
A: 49 OD

Q: What about the OD value [53] of the same binder?
A: 93 OD

Q: And the OD value [54]?
A: 76 OD

Q: And the OD value [55]?
A: 80 OD

Q: And the OD value [56]?
A: 68 OD

Q: What about the OD value [57] of the same binder?
A: 71 OD

Q: And the OD value [58]?
A: 68 OD

Q: What about the OD value [59] of the same binder?
A: 71 OD

Q: What about the OD value [60] of the same binder?
A: 74 OD

Q: And the OD value [61]?
A: 82 OD

Q: And the OD value [62]?
A: 69 OD

Q: What about the OD value [63] of the same binder?
A: 93 OD

Q: What about the OD value [64] of the same binder?
A: 73 OD

Q: What about the OD value [65] of the same binder?
A: 85 OD

Q: And the OD value [66]?
A: 58 OD

Q: What about the OD value [67] of the same binder?
A: 99 OD

Q: What about the OD value [68] of the same binder?
A: 68 OD

Q: And the OD value [69]?
A: 60 OD

Q: What about the OD value [70] of the same binder?
A: 86 OD

Q: What about the OD value [71] of the same binder?
A: 92 OD

Q: And the OD value [72]?
A: 71 OD

Q: And the OD value [73]?
A: 63 OD

Q: What about the OD value [74] of the same binder?
A: 80 OD

Q: What about the OD value [75] of the same binder?
A: 86 OD

Reference: patent US20060263802A1 (CRUCELL HOLLAND B V, published 2006)
